Experimental data taken from IntAct's records for PubMed 21746902.

B1: t-SNARE VTI1 (Saccharomyces cerevisiae), Q04338 (parent)
chain: MSSLLISYESDFKTTLEQAKASLAEAPSQPLSQRNTTLKHVEQQQDELFDLLDQMDVEVNNSIGDASERATYKAKLREWKKTIQSDIKRPLQSLVDSGDRDRLFGDLNASNIDDDQRQQLLSNHAILQKSGDRLKDASRIANETEGIGSQIMMDLRSQRETLENARQTLFQADSYVDKSIKTLKTMTRRLVANKFISYAIIAVLILLILLVLFSKFK
partner: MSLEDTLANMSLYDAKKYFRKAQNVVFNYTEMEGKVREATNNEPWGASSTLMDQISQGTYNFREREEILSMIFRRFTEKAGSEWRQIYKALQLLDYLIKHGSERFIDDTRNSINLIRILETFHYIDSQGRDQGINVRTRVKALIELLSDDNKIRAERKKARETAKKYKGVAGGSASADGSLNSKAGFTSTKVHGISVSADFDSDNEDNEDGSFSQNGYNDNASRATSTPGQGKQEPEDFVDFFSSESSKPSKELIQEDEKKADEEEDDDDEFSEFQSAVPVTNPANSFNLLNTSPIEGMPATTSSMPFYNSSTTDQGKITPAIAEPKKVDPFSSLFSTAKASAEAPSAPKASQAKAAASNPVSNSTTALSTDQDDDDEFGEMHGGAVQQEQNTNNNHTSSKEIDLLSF
B2: Epsin-3 (Saccharomyces cerevisiae), P47160 (parent)
chain: B1 partner

Variants of: B1
Conditions: with ent3_yeast ENT3, P47160

effect of a mutation on the interaction	Variant
disrupting interaction strength	MSSLLISYESDFKTTLEQAKASLAEAPSQPLSQRNTTLKHVRQQQDELFDLLDQMDVEVNNSIGDASERATYKAKLREWKKTIQSDIKRPLQSLVDSGDRDRLFGDLNASNIDDDQRQQLLSNHAILQKSGDRLKDASRIANETEGIGSQIMMDLRSQRETLENARQTLFQADSYVDKSIKTLKTMTRRLVANKFISYAIIAVLILLILLVLFSKFK [E42R]
disrupting interaction strength	MSSLLISYESDFKTTLEQAKASLAEAPSQPLSQRNTTLKHVEQQQDELFDLLDQMDVEVNNSIGDASERATYKAKLREWKKTIQSDIKRPLQSLVRSGDRDRLFGDLNASNIDDDQRQQLLSNHAILQKSGDRLKDASRIANETEGIGSQIMMDLRSQRETLENARQTLFQADSYVDKSIKTLKTMTRRLVANKFISYAIIAVLILLILLVLFSKFK [D96R]
disrupting interaction strength	MSSLLISYESDFKTTLEQAKASLAEAPSQPLSQRNTTLKHVEQQQRELFDLLDQMDVEVNNSIGDASERATYKAKLREWKKTIQSDIKRPLQSLVDSGDRDRLFGDLNASNIDDDQRQQLLSNHAILQKSGDRLKDASRIANETEGIGSQIMMDLRSQRETLENARQTLFQADSYVDKSIKTLKTMTRRLVANKFISYAIIAVLILLILLVLFSKFK [D46R]

Variants of: B2
Conditions: with vti1_yeast VTI1, Q04338

effect of a mutation on the interaction	Variant
disrupting interaction strength	MSLEDTLANMSLYDAKKYFRKAQNVVFNYTEMEGKVREATNNEPWGASSTLMDQISQGTYNFREREEILSMIFRRFTEKAGSEWRQIYKALQLLDYLIKHGSERFIDDTRNSINLIRILETFHYIDSQGRDQGINVRTRVKALIELLSDDNKIRAEEKKARETAKKYKGVAGGSASADGSLNSKAGFTSTKVHGISVSADFDSDNEDNEDGSFSQNGYNDNASRATSTPGQGKQEPEDFVDFFSSESSKPSKELIQEDEKKADEEEDDDDEFSEFQSAVPVTNPANSFNLLNTSPIEGMPATTSSMPFYNSSTTDQGKITPAIAEPKKVDPFSSLFSTAKASAEAPSAPKASQAKAAASNPVSNSTTALSTDQDDDDEFGEMHGGAVQQEQNTNNNHTSSKEIDLLSF [R157E]
disrupting interaction strength	MSLEDTLANMSLYDAKKYFRKAQNVVFNYTEMEGKVREATNNEPWGASSTLMDQISQGTYNFREREEILSMIFRRFTEKAGSEWRQIYKALQLLDYLIKHGSERFIDDTRNSINLIRILETFHYIDSQGRDQGINVRTRVKALIELLSDDNKIRAERKKAEETAKKYKGVAGGSASADGSLNSKAGFTSTKVHGISVSADFDSDNEDNEDGSFSQNGYNDNASRATSTPGQGKQEPEDFVDFFSSESSKPSKELIQEDEKKADEEEDDDDEFSEFQSAVPVTNPANSFNLLNTSPIEGMPATTSSMPFYNSSTTDQGKITPAIAEPKKVDPFSSLFSTAKASAEAPSAPKASQAKAAASNPVSNSTTALSTDQDDDDEFGEMHGGAVQQEQNTNNNHTSSKEIDLLSF [R161E]
